Measurements taken from paper PMC10188570, “Pathway and mechanism of tubulin folding mediated by TRiC/CCT along its ATPase cycle revealed using cryo-EM” (Communications Biology, 2023).

Experiments:
Assay in all cases: cross-linking; XL-MS, 2 mM BS3 on ice 2 h, purified TRiC with associated tubulin after 1 mM ATP, 5 mM MgCl2, 5 mM Al(NO3)3, 30 mM NaF (ATP-AlFx) 1 h 37 °C
Settings in all cases: both partners purified
[1] = target: T1, CCT8 (human, UniProt P50990 1-548)
T1 construct: CCT8 subunit of human TRiC/CCT, endogenous; stood in the assays as a subunit of the whole TRiC complex; also called TRiC subunit CCT8; CCT8’ (copy in the trans ring); source: endogenous, HEK293F cells, purified as a subunit of TRiC
T1 sequence (looked up): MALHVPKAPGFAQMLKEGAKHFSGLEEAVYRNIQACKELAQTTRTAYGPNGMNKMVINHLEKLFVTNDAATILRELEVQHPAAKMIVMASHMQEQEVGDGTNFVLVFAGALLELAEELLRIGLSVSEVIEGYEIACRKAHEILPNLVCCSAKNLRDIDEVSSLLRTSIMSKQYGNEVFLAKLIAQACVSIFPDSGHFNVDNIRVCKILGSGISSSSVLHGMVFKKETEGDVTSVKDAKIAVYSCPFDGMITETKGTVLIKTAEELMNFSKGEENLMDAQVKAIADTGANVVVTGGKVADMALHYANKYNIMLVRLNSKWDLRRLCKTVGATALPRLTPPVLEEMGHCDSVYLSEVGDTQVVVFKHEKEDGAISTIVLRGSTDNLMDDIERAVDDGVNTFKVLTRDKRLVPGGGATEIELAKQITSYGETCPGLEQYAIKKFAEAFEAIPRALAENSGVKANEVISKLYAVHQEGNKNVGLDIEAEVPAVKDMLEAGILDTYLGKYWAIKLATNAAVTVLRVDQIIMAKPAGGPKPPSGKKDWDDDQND

[2] = target: T2, CCT3 (human, UniProt P49368 1-545)
T2 construct: CCT3 subunit of human TRiC/CCT, endogenous; stood in the assays as a subunit of the whole TRiC complex; also called TRiC subunit CCT3; source: endogenous, HEK293F cells, purified as a subunit of TRiC
T2 sequence (looked up): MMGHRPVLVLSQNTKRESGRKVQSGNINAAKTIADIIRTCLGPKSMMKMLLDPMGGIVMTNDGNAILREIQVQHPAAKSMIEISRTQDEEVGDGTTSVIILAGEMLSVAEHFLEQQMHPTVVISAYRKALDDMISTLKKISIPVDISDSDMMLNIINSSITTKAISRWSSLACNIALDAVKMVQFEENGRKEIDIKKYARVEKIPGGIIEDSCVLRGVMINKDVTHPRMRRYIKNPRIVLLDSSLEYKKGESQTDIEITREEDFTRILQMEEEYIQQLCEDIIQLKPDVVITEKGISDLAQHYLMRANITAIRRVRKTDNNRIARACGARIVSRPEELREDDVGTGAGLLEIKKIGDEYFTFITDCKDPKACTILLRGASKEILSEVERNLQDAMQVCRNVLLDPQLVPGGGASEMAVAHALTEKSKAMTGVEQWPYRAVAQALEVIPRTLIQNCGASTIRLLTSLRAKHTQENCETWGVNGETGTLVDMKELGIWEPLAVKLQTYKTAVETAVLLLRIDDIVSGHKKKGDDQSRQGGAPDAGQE

[3] = target: T3, CCT4 (human, UniProt P50991 1-539)
T3 construct: CCT4 subunit of human TRiC/CCT, endogenous; stood in the assays as a subunit of the whole TRiC complex; also called TRiC subunit CCT4; source: endogenous, HEK293F cells, purified as a subunit of TRiC
T3 sequence (looked up): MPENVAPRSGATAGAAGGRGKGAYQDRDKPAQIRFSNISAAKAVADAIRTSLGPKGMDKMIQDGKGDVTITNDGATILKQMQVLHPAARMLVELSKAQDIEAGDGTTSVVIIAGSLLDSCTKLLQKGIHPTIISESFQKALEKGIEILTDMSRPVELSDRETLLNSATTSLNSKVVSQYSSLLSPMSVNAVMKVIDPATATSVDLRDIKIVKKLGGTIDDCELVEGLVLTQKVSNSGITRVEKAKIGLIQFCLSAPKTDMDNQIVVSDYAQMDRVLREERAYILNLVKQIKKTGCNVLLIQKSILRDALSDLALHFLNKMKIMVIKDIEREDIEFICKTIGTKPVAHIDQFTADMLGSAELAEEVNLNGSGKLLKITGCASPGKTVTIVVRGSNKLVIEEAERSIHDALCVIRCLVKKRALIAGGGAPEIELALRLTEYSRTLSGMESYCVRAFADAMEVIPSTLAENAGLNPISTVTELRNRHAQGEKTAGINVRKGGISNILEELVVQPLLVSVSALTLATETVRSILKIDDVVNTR

[4] = target: T4, CCT5 (human, UniProt P48643 1-541)
T4 construct: CCT5 subunit of human TRiC/CCT, endogenous; stood in the assays as a subunit of the whole TRiC complex; also called TRiC subunit CCT5; source: endogenous, HEK293F cells, purified as a subunit of TRiC

[5] = target: T5, CCT7 (human, UniProt Q99832 1-543)
T5 construct: CCT7 subunit of human TRiC/CCT, endogenous; stood in the assays as a subunit of the whole TRiC complex; also called TRiC subunit CCT7; source: endogenous, HEK293F cells, purified as a subunit of TRiC
T5 sequence (looked up): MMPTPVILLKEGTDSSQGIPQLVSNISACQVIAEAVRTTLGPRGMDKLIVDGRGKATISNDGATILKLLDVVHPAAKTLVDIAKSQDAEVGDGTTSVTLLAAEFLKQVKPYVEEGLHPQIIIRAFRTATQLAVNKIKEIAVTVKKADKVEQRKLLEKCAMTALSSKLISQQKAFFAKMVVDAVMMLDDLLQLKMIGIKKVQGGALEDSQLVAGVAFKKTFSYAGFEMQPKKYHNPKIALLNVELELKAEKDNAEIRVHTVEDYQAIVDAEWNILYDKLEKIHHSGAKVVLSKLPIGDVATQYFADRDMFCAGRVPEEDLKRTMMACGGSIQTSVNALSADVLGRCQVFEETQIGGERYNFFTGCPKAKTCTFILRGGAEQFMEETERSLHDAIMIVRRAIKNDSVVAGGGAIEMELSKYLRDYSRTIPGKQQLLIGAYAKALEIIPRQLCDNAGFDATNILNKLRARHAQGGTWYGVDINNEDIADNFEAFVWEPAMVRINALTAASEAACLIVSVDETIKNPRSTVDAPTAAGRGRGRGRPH

Measured: binding result

T4 sequence (P48643 whole entry): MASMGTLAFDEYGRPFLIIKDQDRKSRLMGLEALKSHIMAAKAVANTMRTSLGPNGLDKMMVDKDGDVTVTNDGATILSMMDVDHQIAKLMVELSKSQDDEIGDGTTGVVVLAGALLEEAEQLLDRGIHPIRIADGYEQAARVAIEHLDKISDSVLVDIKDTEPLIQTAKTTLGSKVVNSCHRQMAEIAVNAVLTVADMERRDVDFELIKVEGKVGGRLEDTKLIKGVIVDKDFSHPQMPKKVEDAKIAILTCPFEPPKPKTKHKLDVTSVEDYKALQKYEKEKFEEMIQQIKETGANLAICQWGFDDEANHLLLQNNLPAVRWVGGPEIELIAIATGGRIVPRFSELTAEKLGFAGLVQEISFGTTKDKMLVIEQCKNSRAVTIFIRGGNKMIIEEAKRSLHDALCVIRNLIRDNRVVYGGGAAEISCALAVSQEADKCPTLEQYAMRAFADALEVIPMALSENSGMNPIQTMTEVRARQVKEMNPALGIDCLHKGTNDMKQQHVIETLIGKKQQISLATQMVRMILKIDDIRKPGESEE

B1: β-tubulin (TUBB5) (natural protein, human (endogenous in HEK293F), UniProt P07437 1-444, looked up)
chain: MREIVHIQAGQCGNQIGAKFWEVISDEHGIDPTGTYHGDSDLQLDRISVYYNEATGGKYVPRAILVDLEPGTMDSVRSGPFGQIFRPDNFVFGQSGAGNNWAKGHYTEGAELVDSVLDVVRKEAESCDCLQGFQLTHSLGGGTGSGMGTLLISKIREEYPDRIMNTFSVVPSPKVSDTVVEPYNATLSVHQLVENTDETYCIDNEALYDICFRTLKLTTPTYGDLNHLVSATMSGVTTCLRFPGQLNADLRKLAVNMVPFPRLHFFMPGFAPLTSRGSQQYRALTVPELTQQVFDAKNMMAACDPRHGRYLTVAAVFRGRMSMKEVDEQMLNVQNKNSSYFVEWIPNNVKTAVCDIPPRGLKMAVTFIGNSTAIQELFKRISEQFTAMFRRKAFLHWYTGEGMDEMEFTEAESNMNDLVSEYQQYQDATAEEEEDFGEEAEEEA
notes: β-tubulin (TUBB5), human, endogenous; identified by MS and western blot; folding intermediate to near-natively folded, depending on the state of TRiC; also called substrate; source: endogenous, HEK293F cells, co-purified with TRiC
binds: all assays above
